Results from US20190177417A1 (BIOATLA, published 2019).

T1: Axl protein (human, UniProt P30530 26-451)
T1 construct: extracellular domain; also called human Axl; hAxl
T1 sequence (looked up): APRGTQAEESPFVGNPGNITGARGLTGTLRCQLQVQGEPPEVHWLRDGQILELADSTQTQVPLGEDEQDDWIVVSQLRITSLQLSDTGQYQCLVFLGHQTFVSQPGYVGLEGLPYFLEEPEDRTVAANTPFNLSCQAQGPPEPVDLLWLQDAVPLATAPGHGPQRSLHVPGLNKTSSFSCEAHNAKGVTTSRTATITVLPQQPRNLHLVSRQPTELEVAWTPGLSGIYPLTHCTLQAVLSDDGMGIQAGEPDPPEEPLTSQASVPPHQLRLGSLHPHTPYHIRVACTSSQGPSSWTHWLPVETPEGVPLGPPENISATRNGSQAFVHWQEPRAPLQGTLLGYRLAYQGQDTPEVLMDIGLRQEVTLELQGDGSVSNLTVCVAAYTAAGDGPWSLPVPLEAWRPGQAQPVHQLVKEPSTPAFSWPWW


Assays:
Axl protein [1] = molecular target: T1, Axl protein; test: ELISA, 1:3 dilution, pH 6.0 over pH 7.4
Axl protein [2] = molecular target: T1, Axl protein; test: ELISA, 1:9 dilution, pH 6.0 over pH 7.4

Row | Binder | Affinity ELISA CPE mutant ratio (1:3, pH 6.0/7.4) (Axl protein [1]) [ratio] | Affinity ELISA CPE mutant ratio (1:9, pH 6.0/7.4) (Axl protein [2]) [ratio]
1 | LC-W050F (antibody, V domains shown) VH: EVQLVQSGAEVKKPGATVKISCKVSGYSFTGHTMNWIRQPPGKGLEWIGLIKPSNGGTSYNQKFKGRVTISADKSISTAYLQWSSLKASDTAMYYCAHGHYESYFAMDYWGQGTLVTVSS VL: DIQMTQSPSSLSASVGDRVTITCKASQDVSSAVAWYQQKPGQAPRLLIYFASTRHTGVPSRFSGSGSGTEFTLTISSLQPDDFATYYCQEHFSTPLTFGQGTKVEIK | 2.25 | 3.5
2 | LC-T094C (antibody, V domains shown) VH: EVQLVQSGAEVKKPGATVKISCKVSGYSFTGHTMNWIRQPPGKGLEWIGLIKPSNGGTSYNQKFKGRVTISADKSISTAYLQWSSLKASDTAMYYCAHGHYESYFAMDYWGQGTLVTVSS VL: DIQMTQSPSSLSASVGDRVTITCKASQDVSSAVAWYQQKPGQAPRLLIYWASTRHTGVPSRFSGSGSGTEFTLTISSLQPDDFATYYCQEHFSCPLTFGQGTKVEIK | 1.42 | 1.77
3 | LC-H091Q (antibody, V domains shown) VH: EVQLVQSGAEVKKPGATVKISCKVSGYSFTGHTMNWIRQPPGKGLEWIGLIKPSNGGTSYNQKFKGRVTISADKSISTAYLQWSSLKASDTAMYYCAHGHYESYFAMDYWGQGTLVTVSS VL: DIQMTQSPSSLSASVGDRVTITCKASQDVSSAVAWYQQKPGQAPRLLIYWASTRHTGVPSRFSGSGSGTEFTLTISSLQPDDFATYYCQEQFSTPLTFGQGTKVEIK | 1.77 | 2.01
4 | LC-P095C (antibody, V domains shown) VH: EVQLVQSGAEVKKPGATVKISCKVSGYSFTGHTMNWIRQPPGKGLEWIGLIKPSNGGTSYNQKFKGRVTISADKSISTAYLQWSSLKASDTAMYYCAHGHYESYFAMDYWGQGTLVTVSS VL: DIQMTQSPSSLSASVGDRVTITCKASQDVSSAVAWYQQKPGQAPRLLIYWASTRHTGVPSRFSGSGSGTEFTLTISSLQPDDFATYYCQEHFSTCLTFGQGTKVEIK | 2.35 | 2.63
5 | LC-P095A (antibody, V domains shown) VH: EVQLVQSGAEVKKPGATVKISCKVSGYSFTGHTMNWIRQPPGKGLEWIGLIKPSNGGTSYNQKFKGRVTISADKSISTAYLQWSSLKASDTAMYYCAHGHYESYFAMDYWGQGTLVTVSS VL: DIQMTQSPSSLSASVGDRVTITCKASQDVSSAVAWYQQKPGQAPRLLIYWASTRHTGVPSRFSGSGSGTEFTLTISSLQPDDFATYYCQEHFSTALTFGQGTKVEIK | 2.52 | 2.99
6 | LC-F092S (antibody, V domains shown) VH: EVQLVQSGAEVKKPGATVKISCKVSGYSFTGHTMNWIRQPPGKGLEWIGLIKPSNGGTSYNQKFKGRVTISADKSISTAYLQWSSLKASDTAMYYCAHGHYESYFAMDYWGQGTLVTVSS VL: DIQMTQSPSSLSASVGDRVTITCKASQDVSSAVAWYQQKPGQAPRLLIYWASTRHTGVPSRFSGSGSGTEFTLTISSLQPDDFATYYCQEHSSTPLTFGQGTKVEIK | 3.18 | 2.94
7 | LC-P095S (antibody, V domains shown) VH: EVQLVQSGAEVKKPGATVKISCKVSGYSFTGHTMNWIRQPPGKGLEWIGLIKPSNGGTSYNQKFKGRVTISADKSISTAYLQWSSLKASDTAMYYCAHGHYESYFAMDYWGQGTLVTVSS VL: DIQMTQSPSSLSASVGDRVTITCKASQDVSSAVAWYQQKPGQAPRLLIYWASTRHTGVPSRFSGSGSGTEFTLTISSLQPDDFATYYCQEHFSTSLTFGQGTKVEIK | 2.84 | 3.51
8 | LC-H091I (antibody, V domains shown) VH: EVQLVQSGAEVKKPGATVKISCKVSGYSFTGHTMNWIRQPPGKGLEWIGLIKPSNGGTSYNQKFKGRVTISADKSISTAYLQWSSLKASDTAMYYCAHGHYESYFAMDYWGQGTLVTVSS VL: DIQMTQSPSSLSASVGDRVTITCKASQDVSSAVAWYQQKPGQAPRLLIYWASTRHTGVPSRFSGSGSGTEFTLTISSLQPDDFATYYCQEIFSTPLTFGQGTKVEIK | 1.55 | 2.15
9 | LC-H091C (antibody, V domains shown) VH: EVQLVQSGAEVKKPGATVKISCKVSGYSFTGHTMNWIRQPPGKGLEWIGLIKPSNGGTSYNQKFKGRVTISADKSISTAYLQWSSLKASDTAMYYCAHGHYESYFAMDYWGQGTLVTVSS VL: DIQMTQSPSSLSASVGDRVTITCKASQDVSSAVAWYQQKPGQAPRLLIYWASTRHTGVPSRFSGSGSGTEFTLTISSLQPDDFATYYCQECFSTPLTFGQGTKVEIK | 4 | 3.02
10 | LC-P095K (antibody, V domains shown) VH: EVQLVQSGAEVKKPGATVKISCKVSGYSFTGHTMNWIRQPPGKGLEWIGLIKPSNGGTSYNQKFKGRVTISADKSISTAYLQWSSLKASDTAMYYCAHGHYESYFAMDYWGQGTLVTVSS VL: DIQMTQSPSSLSASVGDRVTITCKASQDVSSAVAWYQQKPGQAPRLLIYWASTRHTGVPSRFSGSGSGTEFTLTISSLQPDDFATYYCQEHFSTKLTFGQGTKVEIK | 3.84 | 3.47
11 | LC-A051I (antibody, V domains shown) VH: EVQLVQSGAEVKKPGATVKISCKVSGYSFTGHTMNWIRQPPGKGLEWIGLIKPSNGGTSYNQKFKGRVTISADKSISTAYLQWSSLKASDTAMYYCAHGHYESYFAMDYWGQGTLVTVSS VL: DIQMTQSPSSLSASVGDRVTITCKASQDVSSAVAWYQQKPGQAPRLLIYWISTRHTGVPSRFSGSGSGTEFTLTISSLQPDDFATYYCQEHFSTPLTFGQGTKVEIK | 2.24 | 2.14
12 | LC-P095D (antibody, V domains shown) VH: EVQLVQSGAEVKKPGATVKISCKVSGYSFTGHTMNWIRQPPGKGLEWIGLIKPSNGGTSYNQKFKGRVTISADKSISTAYLQWSSLKASDTAMYYCAHGHYESYFAMDYWGQGTLVTVSS VL: DIQMTQSPSSLSASVGDRVTITCKASQDVSSAVAWYQQKPGQAPRLLIYWASTRHTGVPSRFSGSGSGTEFTLTISSLQPDDFATYYCQEHFSTDLTFGQGTKVEIK | 3.95 | 2.89
13 | LC-H091L (antibody, V domains shown) VH: EVQLVQSGAEVKKPGATVKISCKVSGYSFTGHTMNWIRQPPGKGLEWIGLIKPSNGGTSYNQKFKGRVTISADKSISTAYLQWSSLKASDTAMYYCAHGHYESYFAMDYWGQGTLVTVSS VL: DIQMTQSPSSLSASVGDRVTITCKASQDVSSAVAWYQQKPGQAPRLLIYWASTRHTGVPSRFSGSGSGTEFTLTISSLQPDDFATYYCQELFSTPLTFGQGTKVEIK | 2.8 | 2.08
14 | LC-P095H (antibody, V domains shown) VH: EVQLVQSGAEVKKPGATVKISCKVSGYSFTGHTMNWIRQPPGKGLEWIGLIKPSNGGTSYNQKFKGRVTISADKSISTAYLQWSSLKASDTAMYYCAHGHYESYFAMDYWGQGTLVTVSS VL: DIQMTQSPSSLSASVGDRVTITCKASQDVSSAVAWYQQKPGQAPRLLIYWASTRHTGVPSRFSGSGSGTEFTLTISSLQPDDFATYYCQEHFSTHLTFGQGTKVEIK | 2.5 | 2.75
15 | LC-A051N (antibody, V domains shown) VH: EVQLVQSGAEVKKPGATVKISCKVSGYSFTGHTMNWIRQPPGKGLEWIGLIKPSNGGTSYNQKFKGRVTISADKSISTAYLQWSSLKASDTAMYYCAHGHYESYFAMDYWGQGTLVTVSS VL: DIQMTQSPSSLSASVGDRVTITCKASQDVSSAVAWYQQKPGQAPRLLIYWNSTRHTGVPSRFSGSGSGTEFTLTISSLQPDDFATYYCQEHFSTPLTFGQGTKVEIK | 1.41 | 2.2
16 | LC-A051P (antibody, V domains shown) VH: EVQLVQSGAEVKKPGATVKISCKVSGYSFTGHTMNWIRQPPGKGLEWIGLIKPSNGGTSYNQKFKGRVTISADKSISTAYLQWSSLKASDTAMYYCAHGHYESYFAMDYWGQGTLVTVSS VL: DIQMTQSPSSLSASVGDRVTITCKASQDVSSAVAWYQQKPGQAPRLLIYWPSTRHTGVPSRFSGSGSGTEFTLTISSLQPDDFATYYCQEHFSTPLTFGQGTKVEIK | 1.92 | 1.57
17 | LC-P095E (antibody, V domains shown) VH: EVQLVQSGAEVKKPGATVKISCKVSGYSFTGHTMNWIRQPPGKGLEWIGLIKPSNGGTSYNQKFKGRVTISADKSISTAYLQWSSLKASDTAMYYCAHGHYESYFAMDYWGQGTLVTVSS VL: DIQMTQSPSSLSASVGDRVTITCKASQDVSSAVAWYQQKPGQAPRLLIYWASTRHTGVPSRFSGSGSGTEFTLTISSLQPDDFATYYCQEHFSTELTFGQGTKVEIK | 7.12 | 7.51
18 | LC-H091F (antibody, V domains shown) VH: EVQLVQSGAEVKKPGATVKISCKVSGYSFTGHTMNWIRQPPGKGLEWIGLIKPSNGGTSYNQKFKGRVTISADKSISTAYLQWSSLKASDTAMYYCAHGHYESYFAMDYWGQGTLVTVSS VL: DIQMTQSPSSLSASVGDRVTITCKASQDVSSAVAWYQQKPGQAPRLLIYWASTRHTGVPSRFSGSGSGTEFTLTISSLQPDDFATYYCQEFFSTPLTFGQGTKVEIK | 1.6 | 2.12
